Patent US20200079850A1 (SUTRO BIOPHARMA, published 2020)

Molecular target: T1, human PD-1 expressed on the surface of CHO cells (human, UniProt Q15116 25-288)
T1 construct: I took it as human PD-1; also called CHO-PD1
Test: flow cytometry, CHO-PD1 cells
Procedure: CHO-k cells stably expressing PD-1 or LAG3 (human or cynomolgus) on the cell surface were used to assess binding affinity of anti-PD-1/LAG3 bispecific antibody constructs. Cells were seeded at 100,000 cells/well in 100 μL of FACS buffer (1×PBS, 0.5% BSA, 0.1% sodium azide) in 96-well polypropylene plates. The cells were centrifuged at 1.5K rpm and resuspended with test antibodies diluted in FACS buffer and incubated on ice for 1 hour. The cells were washed twice with FACS buffer and incubated on ice for 30 mins with R-Phycoerythrin-AffiniPure F(ab′)2 Fragment Goat Anti-Human IgG (H+L) secondary detection antibody (1:200 dilution, Jackson ImmunoResearch Laboratories, West Grove, Pa.). The cells were washed twice with FACS buffer, fixed in 4% paraformaldehyde in PBS (Santa Cruz Biotechnology; Dallas, Tex.) for 20 mins on ice in the dark, washed twice with FACS buffer, and analyzed using the BD LSR II Flow Cytometer (BD Biosciences; San Jose, Calif.). Data were analyzed using FlowJo (FlowJo, LLC; Ashland, Oreg.) to determine mean fluorescence intensities. Binding constants were calculated using the statistical software, GraphPad Prism (GraphPad Software; La Jolla, Calif.) using the nonlinear regression equation, one site—specific binding with Hill slope. The secondary antibody by itself was used as a control.

T1 sequence (Q15116 25-288 limits assumed): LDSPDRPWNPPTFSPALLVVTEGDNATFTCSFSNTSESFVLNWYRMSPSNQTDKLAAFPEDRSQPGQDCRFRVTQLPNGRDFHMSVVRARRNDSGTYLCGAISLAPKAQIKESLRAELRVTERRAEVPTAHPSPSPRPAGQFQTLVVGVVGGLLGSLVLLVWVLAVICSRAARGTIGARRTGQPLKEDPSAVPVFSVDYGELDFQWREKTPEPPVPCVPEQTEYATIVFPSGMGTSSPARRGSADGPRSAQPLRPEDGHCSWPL

Row | Bmax | Kd [nM] | Binder
1 | 6380 | 0.8 | Construct G: aPD1 1353-G10 Fab_K × aLAG3 1449-G09.2 scFvFc_H (three-chain Fab x scFvFc) (bispecific antibody, human IgG1, lambda) heavy: not shown light: MSYELTQPPSVSVSPGQTARITCSGDALPKQYAYWYQQKPGQAPVMVIYKDTERPSGIPERFSGSSSGTKVTLTISGVQAEDEADYYCQSADNSITYRVFGGGTKVTVLGQPKAAPSVTLFPPSSEELQANKATLVCLISDFYPGAVTVAWKADSSPVKAGVETTTPSKQSNNKYAASSYLSLTPEQWKSHRSYSCQVTHEGSTVEKTVAPTECS scFv: not shown
2 | 5460 | 0.4 | Construct H: aPD1 1353-G10 Fab_H × aLAG3 1449-G09.2 scFvFc_K (three-chain Fab x scFvFc) (bispecific antibody, human IgG1, lambda) heavy: not shown light: MSYELTQPPSVSVSPGQTARITCSGDALPKQYAYWYQQKPGQAPVMVIYKDTERPSGIPERFSGSSSGTKVTLTISGVQAEDEADYYCQSADNSITYRVFGGGTKVTVLGQPKAAPSVTLFPPSSEELQANKATLVCLISDFYPGAVTVAWKADSSPVKAGVETTTPSKQSNNKYAASSYLSLTPEQWKSHRSYSCQVTHEGSTVEKTVAPTECS scFv: not shown
